Experimental findings from the supplement of paper PMC12636428 are described below.

The data set has as its system Saccharomyces cerevisiae. Nature of the data set: transcriptional activation domain activity (GFP:mCherry ratio, weighted mean of sorted bins, harmonized to initial dataset scale) (arbitrary fluorescence ratio units); higher = stronger transcriptional activation. The note with it: beta-estradiol 1 µM; induction time 4 h. In short, it runs like this:
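Barcoded tiles were sequenced after cells were sorted into 8 bins by GFP:mCherry ratio. Before sorting, cultures had been diluted 1:5 into SC with 1 uM beta-estradiol and held for 4 hours at 30 °C. The tiles were fused to an estradiol-inducible synthetic transcription factor and integrated at URA3 in yeast diploids carrying a GFP reporter. Activation activity is the read-weighted mean of bin median fluorescence, averaged over barcodes and linearly mapped onto the initial dataset scale, and tiles under 50 reads were left out.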

Bounds are passed on as bounds.

Turning to “KARPRQEGGQRQESGKKRKRDEDEGGDGQEGGEGGRKRRRKRKGAGGADDGVQ”, the “transcriptional activation domain activity” value is 33400. In the case of “MSKRAAEGSDSAGSSKKVKQDDSASTVFQKDEEGNLYVDLSSMKRATVSVFRG”, the “transcriptional activation domain activity” value is 60400.

Consider “NWHHSIQVPYSFVANYDHPVCHMLHRWLPLYIPAVALRMHILTYLLLVAFFSL”, for which the “transcriptional activation domain activity” value is 57700. For “RMPKDCKSREFRDKAHDAVDAFAVDLEKRLRDENRPALLKLACLLMVLHQIEL” the value was 58600. On to “MHDAISFVLHLRLFAHVVGTSLSDGGPVFLALCMLPPLMRHFVSMSSNLWTTA”, for which the “transcriptional activation domain activity” value came to 70700. For “VREEPTAFFFVVFGLVYETLVTSVPDSDAAAHRTSIVALKALKCLVQEKYCGK” the value was 46200. For “SRVMRHFSAVEAGCFLWIWILVRIEGGMLLVNLYLDTTRITSTILNLYTACTG” the value was 78500. In the case of “GSYCISLVNVLVAFGVVLLHASTSGLWHWNPPFRAPNSVVFIYLLSNIFLITV”, the “transcriptional activation domain activity” value stood at 55000. Consider “MGDCIKAHVFLLTFFYLYIHTHIFLFLFFIFLPFLLFSASSIYILFSFLFFPA”, for which the “transcriptional activation domain activity” value was 32300. To “SFLIFLLCEYARHVLVTSITVPHYLEYADVWRGNGQMDFRLLIRMFSTDTRRK” belongs 45000; to “MGLANGDALITECGGVTFGFGFFLIFVGFWIGLDQVDGVWFLTLVWLLALFFL”, 53900; to “PFRIGRIVAWISYGIHQVGQWGILAKVQRAKEEWSNTYRWWNWSMVYLNGFML”, 59700.

As to “MVNCLKVFLVVLLAPIPLAPPIFLLSFLALMVVDHEPCPYCSLLIILLLQSTC”, the “transcriptional activation domain activity” value turned out to be 31200. For “KLYSLGHILHSFIFVFSFFHFLISFLHSGFLCPRLFMFSSSLLFYYFLVGFFF” the value was 27700; for “MCFVVFIRWELLMISHCAVVYLLLLFLLFIVHYFLIEGFLFLYVLVRAFAFVL”, 41900. As to “MCPVLFCFYSLMILIFFLSFLFRTSYIYTLYFPGLFVCCLFFLFLLFLSLSQW”, the “transcriptional activation domain activity” value amounted to 73200. For “SHFLPLLLFLSLSFILFSFPFILPFSLISLFSYFFLPFLHISTLFHSYFSFLL” the value was 47400.

Consider “SYINTHNSNDNNNLMGSQARSNSQTPTASTIYEEAESQSSYLDDMFRTSQGGR”, for which the “transcriptional activation domain activity” value worked out at 43100. For “TFLLLSMPALLLLFSALGVCFLLSTSGLFFLSTSGFFFLLTTSGFFFFLFFML” the value was 37100; for “MSTNSPESTGDHTDTERKDMPRKRSKVSRACDACRRKKVRCDAEFLTTLQKVT”, 79400; for “ICIIPFVNGFLCEPILPLFFFCSFLILSESWFIFLHWFGSWSLVIYFGSWCLF”, 79700. For “AKEEKKEEKKEEAKAAEEVKPEETPAVEETKAEEAKVDEAKTEETPAVAAAAA” the value was 15700; for “ILHCFIIPLLFLVGFLSFLSLPCLLAVAFLIFMSILNLLLLGFLLLLWILLFF”, 41200.

For the sequence “MRKVLANVPGPGGTWGLGFISGVLLVNPKRLLGYLLRCWSTHHGKLARCLWPI”, the “transcriptional activation domain activity” value came to 47600. For “GRAESPYNAKYLTGAFSSGSSNGAATATAASFAVFGMGSETVSSGRSPASNNA” the value was 44500; for “FGCLGFYPYLYCTGGMVLSHFAPHQNPELYPSDLSIISSLLISILFFCGWTLT”, 67900. To “DNESDAEPQQEKSKSQSRRRQSRGRGRRGADSGAESDARSDVSQSGGRRNRQR” belongs 44200. “MALHALLHLLNVYYQGCLPYNVLVITVCTMLYKLFFSKSFYCRFRRFGRPWYL”: the “transcriptional activation domain activity” value came to 54300.

On to “EGEKKDQESDEKESNEEKKDDVEKLTKEMDKVTIKGEKKILGKSKGFGFVCFS”, for which the “transcriptional activation domain activity” value came to 7730. For “VKPIPPRPSTGLRYRVETLIGITGYRMAKFRPSWSEVVLACLNVLWRPQFFFV” the value was 55000; for “SRVVYRDGRRHHYCVTSFDVLSSGILYIICGALDNIWLVTIERVVLSIMACRV”, 81500; for “QIDQNGDPLAKYVRNKVRTTKYTIISILPKDLFEQFRNVIFFLVLVIFQNFPF”, 56900. To “PFSNFFSNLFLYLFFDLFSNFFFIFSLPFILFHIISSIFNLNFNLLLLLIHLF” belongs 65800; to “ARVIRCNRSAELHVVNRLREVCEDQELRADSTALTSLVRTCRSDLRACINALQ”, 59300; to “TQPIDIAASNQQNGEIAQLWDFNVDQFNMTPSNSSGSATISAPNSFTSDIPQY”, 57300. For “MSSWDGTQGSSSNGQVRKRRRIALACDSCRARKSRCDGRRPQCSSCAGQGTKC” the value was 43400; for “TISYLILAGSDYFEWCYLSIYQYSTLCNSSLLDVWRDIQYLWILIMFIWNILP”, 52100; for “YCGDDMHSLRIVVAVLALLTTLKSIHAFAIVWVQSIVHFGDLQGAILLNYTAW”, 76900. As to “MRCPFHLLHTTSGLVYTFYLLFWVLVDTLMFYFFFPSCMSLGSVGHLLFISCC”, the “transcriptional activation domain activity” value was 67600. To “RDMLIDTYLTPENLYDVHGPGVPVKTLEIATALVDIVGQYDHNMKLEAWNVLH” belongs 50000. On to “MGCFFSFLFFFLFLFLFRSTVQSKVAFSLSLFFSLFKYLFFCCLVLGYFYLVL”, for which the “transcriptional activation domain activity” value amounted to 70500. For “KQRKAELIHHVVPLAVAAAFSIFLSGEDLEGPRIYHSMASLKVLRRLVAVISS” the value was 54400. For “MREDITQIDLITFYLCIFLSITVFVELIILCWIRILSIFNVCLFALLLCQLVY” the value was 33700; for “FFFFFFFFFFFFFLFLLLSLFFPYLICHRLHLKTQLPHICFIFRLLAASCLST”, 46400; for “CKRCSTLTCVGCGSRPLEKKLATEINVQGTKLTWCCSRGRLFVIWAILCGFDQ”, 43900. To “MMDCRRRTGFQAFFLSFLSLVLSSFFLLCLFNPYVCVFFLIFHYRLTFSVIWS” belongs 49100; to “MEQTLATNQSLQPVKRVACNRCRTQKLKCNPSGEGRGSSSKCVRCAKAGTDCT”, 38900; to “VLYGRLRVKAQLLECALWNISAWLSLPDVERKSYTMLFTTLGGLYDMTCRIYL”, 53000.

On to “TPSSTATTAAPAATSAATPSLFSKPATTSAAPATATAAASTPSGNLFGAKAAA”, for which the “transcriptional activation domain activity” value was 47500. For “MRLHCFFLFVFFFSLFSFLLATLCHSPLPLPFVHVSFFPPSLLPLPIFALDPF” the value was 33100. For “FGSDYTRFYMYMPHPSILPYILGDLFWTFWRGFIDMEMTSKTYLYLFFLLLPP” the value was 72300. To “MWWAFIFFFLLSFFLFLLFLGWLAGWQVCCWGFWFLVGFHFGWLGWFGCGITS” belongs 32000; to “ILLIVRFIWRSPYLISTGCGSLINDFSYVNIFLYSKIFCERFFIFLSLVIFIK”, 66800; to “LSILIYESIPERRQSSLARSDGISAMDVCVSLLVTLAHLSPLVSRFGGVTING”, 72500. For “IRGNMSGSEFHWTCKSLGLCGILVRCLAWYCISKMYVLPTCYRRMYCCEVYKD”, the “transcriptional activation domain activity” value was 49700.

For the sequence “SPTRAYVGANTNSKNASFNDADLLSSSYWIKAYNDHLFSVSESDETSPMNSEL”, the “transcriptional activation domain activity” value turned out to be 38800.

For “AQSSPVRASPHPADSPSKPAAKPVSKPATAAPPAASKPTTAAAPKAAAAKPVS”, the “transcriptional activation domain activity” value is 27200. For “TAPAPEAAAEPAPAAEAEAPAAETAEAPKEEAKDEKKPEKEKKVSRRLSSRVT” the value was 32400; for “LSPGKPHQGMVRVRSPNNMVAFVNLLVRLCDLGFPAHWISDYVQSMLMDKVVT”, 66400. To “GSAFGQSAFGKPATGAFGAPTSAFGSNTTTNNNTTTTSSAFGSSTATSAFGSA” belongs 14300.

Regarding “SAASRVAEEKSGDDEAAAAPGTGATPEGVKRKTTRGGKKNRSKKEGGAAAAAA”, the “transcriptional activation domain activity” value was under 6570.

Turning to “ISCLGLTGWAGRFGSLYYIISMGGCSLSLGAMIAHVELKDSANCWWWFRYGFW”, the “transcriptional activation domain activity” value stood at 77400. For “ISGQEHKDMCRILLGLIIDLPLPSGQVTSRIIRLVHALLDFLYLAQLPSQTTN” the value was 61400.

With “VYIFLTFFIATWWPLCLVNLFGWMLLYLFRGVFPEAIMLIFNVLSRVVTIHRI”, the “transcriptional activation domain activity” value was found to be 42000. For “AKILRELFLLYQPPEELIPSLQQWYLLVQACSGIVTSSDFGNTLFGIARLCLP” the value was 30500; for “VKHRVIHLLVVFVAFFFAVTPVYFDYLCCGSPLVLFSSTLGMIIHLILFFFCL”, 49000. For “YRSRGIDEGRGKREAGRERERAERRSTKEAEKGGEGRWEGRSARRKEAGGKKG” the value was 56700. To “LYFTCNERVGACPPSFEYIYDTFFASVTSQEFWRSLFDLEAFYMYLGWYAFCV” belongs 65600.

Regarding “YGADDFFFPPEGCDNNMLYPQTATSWNVLPPQAMQPAPTYVGRPYTPNYRSTP”, the “transcriptional activation domain activity” value amounted to 71900. For “RDSKTDVEAEVEAAEKDEKKGKKRKRAEVVAAEESAEARKGKSKKSSRKGKEV” the value was 34100. For “APKDESEAPKPAEEDSPSKRKKAEEVKIEKKEETPARPEPQHTQPKQPAAKAK” the value was 10100; for “SGPSSNDELIEKGRMLVDELSEAGGGIKDGARNNTSSLYLHLVRVSIDKFSHA”, 18900; for “RPSLASSTATATATTTRPAADAASTTRAPRASLAPSTKPTTTRPAVAAAATRT”, 33500. On to “PTAPNSSLPGCDVWDDIVTAAYYVNPCFNFYHLIDFCPYLWDELGFPSLAWGP”, for which the “transcriptional activation domain activity” value was 72200.
